From patent US8633156B2, “Insulin derivatives having an extremely delayed time-action profile” (Sanofi-Aventis Deutschland GmbH, priority 2008, dated 2014)

Legend:
[1] = from Kohn et al., cited from earlier work
[2] = system: healthy male normal glycemic Wistar rats; assay: Blood glucose-lowering effect of insulin analogues in rats; assay type: in vivo, rat; conditions: dose 9 nmol/kg s.c., n=8, blood glucose up to eight hours after injection
Description: In order to test the insulin derivatives of the invention for their biopharmacological and physicochemical properties, a solution of the compounds was prepared as follows: the insulin derivative of the invention was dissolved with a target concentration of 240±5 μM in 1 mM hydrochloric acid with 80 μg/mL zinc (as zinc chloride). For this purpose, initially an amount of the freeze-dried material which is about 30% higher than required on the basis of the molecular weight and the desired concentration was weighed out. The concentration present was then determined by analytical HPLC and the solution was subsequently made up to the volume necessary to achieve the target concentration with 5 mM hydrochloric acid with 80 μg/mL zinc. If necessary, the pH was readjusted to 3.5±0.1. After the final analysis by HPLC to verify the target concentration of 240±5 μM, the finished solution was transferred by means of a syringe with a 0.2 μm filter attachment into a sterile vial which was closed with a septum and a crimped cap. […] Blood samples are taken from the animals immediately before the injection of the insulin analogue and at regular intervals up to eight hours after the injection, and the blood glucose content therein is determined.

| Substance | calculated pl ([1]; calculated) | experimentally determined pl ([1]; experimentally determined) | isoelectric point (pl) [1] | hypoglycemic effect [2] |
| --- | --- | --- | --- | --- |
| Arg (A0), Gly (A21), Arg (B31), Arg (B32) human insulin [Compound 18] | 7.58 | 7.3 |  |  |
| human insulin |  |  | 5.6 | hypoglycemic effect |
